Patent US9958461B2, “Detection of protein to protein interactions” (THE GOVERNING COUNCIL OF THE UNIVERSITY OF TORONTO, priority 2013, dated 2018)

Experiments:
EGFR-Wt [1] = target: T1, EGFR-Wt (Homo sapiens, UniProt P00533); experiment: MaMTH EGFR-interactor screen, lentiviral preys against EGFR-wildtype bait (interaction score); format: cell-based; conditions: MaMTH interaction score of prey with EGFR-Wt bait, mean
T1 construct: with the advantage of testing full-length integral membrane proteins; (GGGGS)2 linker-Cub (human ubiquitin aa 35-76)-GAL4(1-147)-mNFkB(364-550) (C); expressed in transfected cells
Description: (§1) After lentivirus harvest, target cells (stable 5×GAL4UAS-luciferase reporter-HEK293T cells) were infected at a multiplicity of infection (MOI) of around 0.3-0.4 to ensure single copy integration per cell. Cells were selected in puromycin for at least 48 h and transfected with either EGFR-wildtype or EGFR-L858R baits in triplicates. 24 h after transfection, cells were lysed and luciferase assays performed. On each set of interaction assays, various negative controls were included. To calculate a MaMTH-interaction scores, negative controls were averaged and the fold-change of luciferase activity compared to the averaged controls was calculated and defined as the interaction score.
(§2) Each set of experiments contains a defined set of negative controls in at least three replicates. Negative controls were chosen as such that there is a range of controls showing high-background luciferase activity (normally cytosolic proteins: Fabp5, Pex19) as well as medium-background luciferase activity (membrane-bound interactors: Pex7, GABBR2). Negative controls were averaged and the fold-change of luciferase activity was calculated. Using this method, we have a stringent cut-off and chose an interaction score >1 to be interacting proteins.
(§3) Our cut-off of 1 is based on fold-change difference in luciferase activity over averaged negative controls. Negative controls include cytosolic preys (which tend to promiscuously bind to many proteins), plasma membrane- and peroxisomal-prey proteins. In general, we chose stringent conditions by testing preys that tend to have high luciferase background with any bait tested, in order to generate high-confidence interaction data. […] Phosphorylated tyrosine residues on the receptor are typically docking sites for downstream cytoplasmic targets and recognized through SH2 or PTB domains^43.

EGFR-Wt [2] = experiment: as above; format: cell-based, human; conditions: ratio of EGFR-Wt mean to EGFR-L858R mean interaction score
Description: as §1, §2, §3

EGFR-L858R = target: T2, EGFR-L858R (Homo sapiens, UniProt P00533, L858R); experiment: MaMTH EGFR-interactor screen, lentiviral preys against EGFR-L858R bait (interaction score); format: cell-based; conditions: MaMTH interaction score of prey with EGFR-L858R bait
T2 construct: with the advantage of testing full-length integral membrane proteins; (GGGGS)2 linker-Cub (human ubiquitin aa 35-76)-GAL4(1-147)-mNFkB(364-550) (C); expressed in transfected cells
Description: as §1, §2, §3

ErbB4/Shc1 interaction = target: T3, ErbB4/Shc1 interaction (Homo sapiens, UniProt Q15303); experiment: MaMTH luciferase reporter assay, ErbB4 bait / Shc1 prey with TKI-PD158780; format: cell-based; conditions: presence/absence of TKI-PD158780
T3 construct: with the advantage of testing full-length integral membrane proteins; (GGGGS)2 linker-Cub (human ubiquitin aa 35-76)-transcription factor (GAL4-mNFkB or mLexA-VP16; expressed in transfected cells; HEK293T reporter lines are used throughout)
T3 sequence (Q15303 26-1308): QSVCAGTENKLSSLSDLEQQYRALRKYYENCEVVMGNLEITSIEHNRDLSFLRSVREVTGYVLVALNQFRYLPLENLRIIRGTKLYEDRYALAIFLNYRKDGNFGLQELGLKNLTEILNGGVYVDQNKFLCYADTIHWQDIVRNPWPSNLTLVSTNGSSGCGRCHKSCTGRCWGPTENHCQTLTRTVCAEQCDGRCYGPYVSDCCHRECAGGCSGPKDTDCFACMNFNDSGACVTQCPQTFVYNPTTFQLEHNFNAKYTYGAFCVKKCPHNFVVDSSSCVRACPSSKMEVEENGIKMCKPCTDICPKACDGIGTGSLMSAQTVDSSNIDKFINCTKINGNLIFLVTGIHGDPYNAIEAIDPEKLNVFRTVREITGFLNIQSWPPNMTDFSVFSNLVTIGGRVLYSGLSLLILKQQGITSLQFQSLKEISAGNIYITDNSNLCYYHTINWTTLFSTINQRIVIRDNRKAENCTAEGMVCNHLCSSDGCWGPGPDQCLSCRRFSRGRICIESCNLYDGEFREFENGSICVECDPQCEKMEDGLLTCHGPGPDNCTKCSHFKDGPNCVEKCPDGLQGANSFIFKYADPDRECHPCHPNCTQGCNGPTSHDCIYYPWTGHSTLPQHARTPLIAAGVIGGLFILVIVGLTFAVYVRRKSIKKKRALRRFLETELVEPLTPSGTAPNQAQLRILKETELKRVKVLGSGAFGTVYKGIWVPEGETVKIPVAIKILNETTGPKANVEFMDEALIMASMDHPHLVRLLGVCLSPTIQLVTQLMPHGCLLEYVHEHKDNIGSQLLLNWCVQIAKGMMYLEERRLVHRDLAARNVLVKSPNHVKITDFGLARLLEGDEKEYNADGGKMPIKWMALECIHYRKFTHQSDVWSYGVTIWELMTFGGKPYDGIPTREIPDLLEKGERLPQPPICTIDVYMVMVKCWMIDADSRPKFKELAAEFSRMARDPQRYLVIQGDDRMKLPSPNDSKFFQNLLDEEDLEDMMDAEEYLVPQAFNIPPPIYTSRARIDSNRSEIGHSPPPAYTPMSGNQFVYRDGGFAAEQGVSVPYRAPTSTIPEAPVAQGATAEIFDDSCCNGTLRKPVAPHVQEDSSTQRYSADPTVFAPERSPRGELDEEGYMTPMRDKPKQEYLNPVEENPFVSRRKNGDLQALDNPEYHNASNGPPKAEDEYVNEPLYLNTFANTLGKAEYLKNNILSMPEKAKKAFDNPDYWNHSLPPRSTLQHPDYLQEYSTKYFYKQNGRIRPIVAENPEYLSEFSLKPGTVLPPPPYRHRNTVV
Description: FIG. 7: (a) Graph illustrating relative lucifease activity of serum stimulated PPIs. Stable 5×GAL4UAS-luciferase reporter cell lines were co-transfected with ErbB2 bait and preys. Luciferase activity was measured 24 h following transfection in the absence/presence of serum. […] The plotted values represent relative-luciferase signals calculated as fold-change increase above averaged negative controls. (b) Graph illustrating relative luciferase activity of drug-inhibited protein-protein interactions. Following transfection, ErbB4 interaction with either Shc1 or non-interacting Pex13 was measured in presence/absence of non-specfic TKI-PD158780. Plotted values represent relative luciferase signals calculated as fold-change increase above bait only controls.
We then sought to more specifically focus on the ErbB subfamily of receptor tyrosine kinases (RTK) to investigate ligand-dependent and drug-inhibited interactions. The ErbB family consists of 4 closely related receptors: EGFR, ErbB2, ErbB3, and ErbB4. Elucidation of cell signaling via all four ErbB receptors is of great therapeutic interest since they are frequently found mutated or overexpressed in several cancer. […]

EGFR-ex19del = experiment: Western blot of EGFR-ex19del bait phosphorylation after erlotinib (anti-phospho-EGFR); conditions: 0, 250 or 500 nM Erlotinib, 20 h, serum-containing media
Description: (a) Left panel: Relative luciferase activity of stable 5×GAL4UAS-HEK293T luciferase reporter cells co-transfected with various oncogenic ErbB baits and Shc1 prey. […] (b) Luciferase activity of sable 5×GAL4UAS-HEK293T luciferase reporter cells co-transfected with EGFR-Wt, EGFR-L858R or EGFR-D855A-kinase dead baits and Shc1 adaptor prey. (c)-(d) Western Blot showing expression of various receptors using anti-V5 antibodies and phosphor-tyrosine-specific antibodies. […] (h) Western Blot analysis of EGFR-Wt, EGFR-L858R, EGFR-exon19de and EGFR-L858R/T790A baits transfected into stable5×GAL4UAS-luciferase HEK293T reporter cells in serum-containing media.
Western blot analysis was performed using standard protocols. Briefly, cells were either directly harvested in 2×sample buffer or harvested in 1×reporter lysis buffer (Promega) containing protease inhibitors (Complete-EDTA, Roche) and 2×sample buffer was added after freezing the cells at −80° C. For phospho-specific antibodies, cells were lysed in Ripa buffer containing Na-orthovanadate, PMSF and protease inhibitor and 2×SB was added and samples were immediately boiled at 95° C. for 5 min and proceeded for Western Blot analysis. […] Transferred samples were immunoblotted with primary antibodies, followed by incubation with HRP-coupled secondary antibodies, and detection was performed using GE-Healthcare enhanced luminescence. […]

| EGFR-Wt mean (EGFR-Wt [1]) | EGFR-L858R mean (EGFR-L858R) | Effect on Shc1-adaptor protein binding to ErbB4 (ErbB4/Shc1 interaction) | Molecule | Wt/L858R (EGFR-Wt [2]) | Receptor phosphorylation upon Erlotinib treatment (Western blot) (EGFR-ex19del) |
| --- | --- | --- | --- | --- | --- |
| 7.28 | 3.47 | – | TRAF2 | 2.10 | – |
| 1.22 | 1.32 | – | DOK6 | 0.92 | – |
| 5.60 | 14.70 | – | SFN | 0.38 | – |
| 1.91 | 1.23 | – | YES1 | 1.55 | – |
| – | – | reduced Shc1-adaptor protein binding | CNc1cc2c(Nc3cccc(Br)c3)ncnc2cn1 [TKI-PD158780] | – | – |
| 7.58 | 13.94 | – | YWHAZ | 0.54 | – |
| 8.28 | 6.55 | – | IKBKG | 1.26 | – |
| 3.94 | 3.96 | – | HCK | 1.00 | – |
| – | – | – | Grb2 | 0.28 | – |
| 8.30 | 5.00 | – | EZR | 1.66 | – |
| 7.35 | 4.20 | – | STAT3 | 1.75 | – |
| 7.39 | 10.44 | – | YWHAB | 0.71 | – |
| 0.84 | 3.03 | – | STAT2 | 0.28 | – |
| 0.58 | 1.69 | – | TLR2 | 0.34 | – |
| 4.35 | 4.87 | – | NCK2 | 0.89 | – |
| 8.19 | 11.96 | – | YWHAQ | 0.69 | – |
| 0.93 | 2.18 | – | APP | 0.43 | – |
| 12.77 | 19.20 | – | HSPA1A | 0.67 | – |
| 10.28 | 7.04 | – | STUB1 | 1.46 | – |
| 0.58 | 1.39 | – | Rgs4 | 0.41 | – |
| 1.91 | 1.51 | – | PIM1 | 1.27 | – |
| 1.32 | 1.42 | – | YWHAG | 0.93 | – |
| 3.21 | 2.59 | – | NR3C1 | 1.24 | – |
| 1.09 | 4.18 | – | MUC1 | 0.26 | – |
| 1.51 | 1.76 | – | MAP4K1 | 0.86 | – |
| 4.51 | 8.25 | – | BLK | 0.55 | – |
| 1.89 | 0.50 | – | ABL1 | 3.76 | – |
| 2.52 | 1.59 | – | TGFA | 1.59 | – |

| EGFR-Wt mean (EGFR-Wt [1]) | EGFR-L858R mean (EGFR-L858R) | Effect on Shc1-adaptor protein binding to ErbB4 (ErbB4/Shc1 interaction) | Molecule | Wt/L858R (EGFR-Wt [2]) | Receptor phosphorylation upon Erlotinib treatment (Western blot) (EGFR-ex19del) |
| --- | --- | --- | --- | --- | --- |
| 1.72 | 4.46 | – | S100A4 | 0.39 | – |
| 27.58 | 14.81 | – | HSP90AB1 | 1.86 | – |
| 3.44 | 3.79 | – | Gapdh | 0.91 | – |
| 1.57 | 0.97 | – | NTRK2 | 1.61 | – |
| 2.99 | 3.76 | – | SH2B1 | 0.79 | – |
| 2.09 | 0.60 | – | ITSN2 | 3.50 | – |
| 1.48 | 2.83 | – | MAPK9 | 0.52 | – |
| 0.37 | 1.24 | – | CD33 | 0.30 | – |
| 2.72 | 6.57 | – | ARRB1 | 0.41 | – |
| – | – | – | C#Cc1cccc(Nc2ncnc3cc(OCCOC)c(OCCOC)cc23)c1 [Erlotinib] | – | sensitive to Erlotinib |
| 1.39 | 0.76 | – | CD3E | 1.83 | – |
| 0.97 | 1.27 | – | GAB2 | 0.76 | – |
| 2.62 | 0.83 | – | ITGB2 | 3.16 | – |
| 1.17 | 3.25 | – | PIK3R2 | 0.36 | – |
| 2.62 | 4.99 | – | FGR | 0.52 | – |
| 1.51 | 1.43 | – | PTPN6 | 1.05 | – |
| 1.77 | 0.97 | – | ASAP2 | 1.81 | – |
| 1.55 | 2.40 | – | PIK3R3 | 0.64 | – |
| 11.13 | 7.70 | – | PRKCA | 1.45 | – |
| 4.12 | 3.11 | – | AKT1 | 1.32 | – |
| 2.84 | 5.36 | – | FRK | 0.53 | – |
| 44.56 | 55.90 | – | PTPN1 | 0.80 | – |
| 1.59 | 9.83 | – | SOCS3 | 0.16 | – |
| 1.23 | 4.30 | – | PIK3C2B | 0.29 | – |
| 0.85 | 1.15 | – | FASLG | 0.74 | – |
| 25.00 | 39.20 | – | HSPA8 | 0.64 | – |
| 24.86 | 14.90 | – | HDAC6 | 1.67 | – |

| Molecule | EGFR-Wt mean (EGFR-Wt [1]) | EGFR-L858R mean (EGFR-L858R) | Effect on Shc1-adaptor protein binding to ErbB4 (ErbB4/Shc1 interaction) | Wt/L858R (EGFR-Wt [2]) | Receptor phosphorylation upon Erlotinib treatment (Western blot) (EGFR-ex19del) |
| --- | --- | --- | --- | --- | --- |
| RELA | 1.27 | 1.18 | – | 1.08 | – |
| Hsp90aa1 | 74.20 | 97.06 | – | 0.76 | – |
